Assay results reported in the RNAGym collection of RNA variant scans (doi:10.1073/pnas.2313332121).
Fewer inactive variants are shown than the library holds.

B1: TPR 5TU (parent)
chain: GGAUCUUCUCGAUCUAACAAAAAAGACAAAUCUGCCACAAAGCUUGAGAGCAUCUUCGGAUGCAGAGGCGGCAGCCUUCGGUGGCGCGAUAGCGCCAACGUUCUCAACUAUGACACGCAAAACGCGUGCUCCGUUGAAUGGAGUUUAUCAUG

Variants of: B1
Assay: polymerase ribozyme fitness, log enrichment relative to wild type (log ratio); higher = more active; in vitro selection for triplet polymerase activity
Summary of the method: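 PCR was used to build mutant libraries for each subunit of a heterodimeric triplet polymerase ribozyme, which were then transcribed. A single in vitro selection round, in triplicate, used a frozen incubation at −7 °C and recovered extended constructs by gel excision, streptavidin beads and RT-PCR. Fitness is the logarithm of genotype enrichment relative to wild-type enrichment, averaged over replicates with inverse-variance weights. The logarithm is base 2, and after Illumina sequencing only genotypes with ≥10 input reads and ≥1 read per output were kept.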

| Variant | polymerase ribozyme fitness (log ratio) |
| --- | --- |
| G88A C118U G141U U144A | ≤ -4.2 |
| A91C A98U C116A A121G U130G | ≤ -4.2 |
| A89C U127A | -4.16 |
| A91G A98G U130G C131A A150U | ≤ -4.2 |
| C87G C114U | -4.08 |
| A91C U104A | ≤ -4.2 |
| C93A G140U | -3.85 |
| G94U G141U | -0.082 |
| G88A U109C A142C | -4.19 |
| C87A U135C | ≤ -4.2 |
| A91G G92U G140A | ≤ -4.2 |
| G94C C96U A113U A115U U130C A137G | ≤ -4.2 |
| C96G U104G G141U | -1.2 |
| C93G G140A | ≤ -4.2 |
| G94C G143A | -1.86 |
| C93U G136U | -3.31 |
| C96U A110G C114U A142G | -4.07 |
| G94A A119C C132G A138U | ≤ -4.2 |
| G92A A106C | -3.04 |
| C93U G140A | -3.82 |
| C93U G140C | -3.57 |

| Variant | polymerase ribozyme fitness (log ratio) |
| --- | --- |
| C96A C118A | -0.912 |
| U90A A106C G128A | ≤ -4.2 |
| C96A A122U | -0.0649 |
| G92C C95U | -0.22 |
| C93A U127G | -4.05 |
| C96U A137C | -3.39 |
| C93A | -2.17 |
| C93G | -3.35 |
| C93U | -1.34 |
| C87G A97U | ≤ -4.2 |
| G88U C132U | -3.92 |
| A89G C95A | -2.08 |
| C87U U102G | -3.08 |
| C93U A120G | -0.649 |
| G92C U127G | -3.67 |
| C87U C99G U127A | ≤ -4.2 |
| C87U U104A | -0.828 |
| C96G G124A | -0.441 |
| C96U C116G | 0.963 |
| C96U C116U | -0.186 |
| C87G A91C A122G | ≤ -4.2 |

| Variant | polymerase ribozyme fitness (log ratio) |
| --- | --- |
| G94U A98U G141A | 0.104 |
| C95U C125U | -0.278 |
| G94A G140A | -3.51 |
| G88C G100A | ≤ -4.2 |
| C87U C93A | -3.93 |
| C87U C93G | -4.18 |
| G92A C96A | -3.11 |
| G92U C149U | -1.29 |
| C95U C99G G117A A120C A122G | -1.97 |
| C93G A98G | -2.91 |
| G88A C93G C108U A120U A137U | ≤ -4.2 |
| C93U U148G | -3.7 |
| G92U A138U | -4.2 |
| C96G C103A | -2.09 |
| G92C C123U | -2.47 |
| C96U C99U | -0.378 |
| C96U C99A | -1.51 |
| C87U U102C A115C | -2.7 |
| G92U C103G | -3.77 |
| C87G G94C A98G | -3.08 |
| C95U C116G A138G | -3.58 |

| Variant | polymerase ribozyme fitness (log ratio) |
| --- | --- |
| G88A G94U U146C | -4.14 |
| C96U C105G U144A | -1.81 |
| G92A C103G | -4 |
| G92A C103A | -3.9 |
| G94A C105G | -1.68 |
| C96G A120C U146C | -0.778 |
| A91G C96U U101C U144G | -2.18 |
| C87G G100C | -3.97 |
| G94A C116U A122U | -0.787 |
| C95A C96G | -2.25 |
| G94C C96U | -1.08 |
| C96A U135A | -1.48 |
| C93A C125G | -2.62 |
| C87A U90G C99G | ≤ -4.2 |
| G88U C99A U146C | ≤ -4.2 |
| C93G A98C A120U | -3.94 |
| A89U A115G | -1.6 |
| C93G A115G | -4.09 |
| C93U C103G | -3.63 |
| C93U C103U | -1.61 |
